Assay results: patent publication US20240034757A1 (OXFORD UNIVERSITY INNOVATION, published 2024)
Read-outs that look alike come from different tables or passages of the source.

Legend:
CCL5_HUMAN [1] = molecular target: T1, CCL5_HUMAN (human, UniProt P13501 24-91); assay: yeast surface display FACS
T1 sequence: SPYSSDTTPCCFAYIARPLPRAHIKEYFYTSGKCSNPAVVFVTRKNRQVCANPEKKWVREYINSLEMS

CXCL12_HUMAN = CXCL12_HUMAN (human, UniProt P48061 22-89); assay: yeast surface display FACS
CCL11_HUMAN = CCL11_HUMAN (human, UniProt P51671 24-97); assay: yeast surface display FACS
Sequence of CCL11_HUMAN (P51671 24-97 limits assumed): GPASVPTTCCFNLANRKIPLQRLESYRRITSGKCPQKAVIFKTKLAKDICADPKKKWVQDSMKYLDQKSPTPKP

CCL18_HUMAN = molecular target: T2, CCL18_HUMAN (human, UniProt P55774 21-89); assay: yeast surface display FACS
T2 sequence: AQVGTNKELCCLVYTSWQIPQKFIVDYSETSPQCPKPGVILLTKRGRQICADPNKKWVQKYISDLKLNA

CCL17_HUMAN = molecular target: T3, CCL17_HUMAN (human, UniProt Q92583 24-94); assay: yeast surface display FACS
T3 sequence: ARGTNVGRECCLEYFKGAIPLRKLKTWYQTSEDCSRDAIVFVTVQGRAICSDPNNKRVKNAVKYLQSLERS

CCL20_HUMAN = CCL20_HUMAN (human, UniProt P78556 27-96); assay: yeast surface display FACS
Sequence of CCL20_HUMAN (P78556 27-96 limits assumed): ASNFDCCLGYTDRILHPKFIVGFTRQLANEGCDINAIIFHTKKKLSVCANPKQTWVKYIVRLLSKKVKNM

CXCL8_HUMAN = molecular target: T4, CXCL8_HUMAN (human, UniProt P10145 28-99); assay: yeast surface display FACS
T4 sequence: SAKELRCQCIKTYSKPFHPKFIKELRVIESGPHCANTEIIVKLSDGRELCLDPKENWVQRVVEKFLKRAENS

P1156_IXORI [2] = molecular target: T5, P1156_IXORI (Ixodes ricinus, UniProt V5HBW0 29-108); assay: BLI [Cont.) C]
T5 sequence: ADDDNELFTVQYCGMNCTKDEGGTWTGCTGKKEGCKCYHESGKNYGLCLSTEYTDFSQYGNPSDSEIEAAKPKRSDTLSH

P1168_IXORI [3] = molecular target: T6, P1168_IXORI (Ixodes ricinus, UniProt A0A0K8RCU3 25-106); assay: BLI [Cont.]
T6 sequence: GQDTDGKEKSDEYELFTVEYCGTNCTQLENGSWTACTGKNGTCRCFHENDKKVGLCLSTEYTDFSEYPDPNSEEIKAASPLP

P1080_IXORI [4] = molecular target: T7, P1080_IXORI (Ixodes ricinus, UniProt A0A090XBL6 20-118); assay: BLI [Cont.]
T7 sequence (A0A090XBL6 20-118): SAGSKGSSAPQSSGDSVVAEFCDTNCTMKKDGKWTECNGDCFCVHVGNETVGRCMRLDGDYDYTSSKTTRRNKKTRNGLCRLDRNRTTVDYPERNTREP

P1127_IXORI [5] = molecular target: T8, P1127_IXORI (Ixodes ricinus, UniProt A0A0K8RJ67 29-108); assay: BLI [Cont.]
T8 sequence: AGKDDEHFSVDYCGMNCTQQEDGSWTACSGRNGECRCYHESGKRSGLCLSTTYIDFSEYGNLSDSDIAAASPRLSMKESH

P1095_IXORI [6] = molecular target: T9, P1095_IXORI (Ixodes ricinus, UniProt A0A0K8RCE3 24-112); assay: BLI [Cont.]
T9 sequence: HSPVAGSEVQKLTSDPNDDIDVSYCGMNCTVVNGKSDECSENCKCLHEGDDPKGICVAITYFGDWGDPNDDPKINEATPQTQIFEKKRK

P1162_IXORI = molecular target: T10, P1162_IXORI (Ixodes ricinus, UniProt A0A0K8RDJ1 29-99); assay: BLI [Cont.]
T10 sequence: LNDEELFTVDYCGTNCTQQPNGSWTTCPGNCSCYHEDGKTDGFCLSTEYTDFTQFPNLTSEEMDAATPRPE

P1170_IXORI = molecular target: T11, P1170_IXORI (Ixodes ricinus, UniProt A0A0K8RD51 29-102); assay: BLI [Cont.]
T11 sequence: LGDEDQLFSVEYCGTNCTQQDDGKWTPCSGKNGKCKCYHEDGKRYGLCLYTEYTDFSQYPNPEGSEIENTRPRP

P1174_IXORI = molecular target: T12, P1174_IXORI (Ixodes ricinus, UniProt V5I3C5 28-104); assay: BLI [Cont.]
T12 sequence: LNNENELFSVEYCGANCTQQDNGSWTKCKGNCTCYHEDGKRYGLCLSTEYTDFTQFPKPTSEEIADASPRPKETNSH

P1132_IXORI [7] = molecular target: T13, P1132_IXORI (Ixodes ricinus, UniProt V5GZ08 29-106); assay: BLI [Cont.]
T13 sequence: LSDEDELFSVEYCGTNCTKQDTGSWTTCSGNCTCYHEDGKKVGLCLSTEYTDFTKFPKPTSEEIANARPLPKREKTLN

P1134_IXORI [8] = molecular target: T14, P1134_IXORI (Ixodes ricinus, UniProt A0A0K8RAI0 32-135); assay: BLI [Cont.]
T14 sequence: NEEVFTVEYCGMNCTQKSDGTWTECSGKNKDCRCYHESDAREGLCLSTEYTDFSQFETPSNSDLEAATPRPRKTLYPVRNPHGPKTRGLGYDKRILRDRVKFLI

P1096_IXORI [9] = molecular target: T15, P1096_IXORI (Ixodes ricinus, UniProt A0A0K8RKE4 24-114); assay: BLI [Cont.]
T15 sequence: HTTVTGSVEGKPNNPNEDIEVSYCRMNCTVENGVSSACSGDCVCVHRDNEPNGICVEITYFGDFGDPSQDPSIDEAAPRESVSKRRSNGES

P1128_IXORI = molecular target: T16, P1128_IXORI (Ixodes ricinus, UniProt A0A0K8R6B3 19-90); assay: BLI [Cont.]
T16 sequence: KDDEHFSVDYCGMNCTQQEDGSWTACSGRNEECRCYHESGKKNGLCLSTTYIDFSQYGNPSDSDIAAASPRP

P1229_IXORI = molecular target: T17, P1229_IXORI (Ixodes ricinus, UniProt A0A0K8R4R9 32-108); assay: BLI [Cont.]
T17 sequence: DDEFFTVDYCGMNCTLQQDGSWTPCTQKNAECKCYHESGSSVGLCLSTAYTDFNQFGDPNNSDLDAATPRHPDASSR

P1166_IXORI [10] = molecular target: T18, P1166_IXORI (Ixodes ricinus, UniProt A0A0K8RE99 25-110); assay: BLI [Cont.]
T18 sequence: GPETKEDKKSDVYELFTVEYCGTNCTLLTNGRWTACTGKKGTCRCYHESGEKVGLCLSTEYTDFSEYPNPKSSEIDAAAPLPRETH

P1172_IXORI = molecular target: T19, P1172_IXORI (Ixodes ricinus, UniProt V5I2G9 24-94); assay: BLI [Cont.]
T19 sequence: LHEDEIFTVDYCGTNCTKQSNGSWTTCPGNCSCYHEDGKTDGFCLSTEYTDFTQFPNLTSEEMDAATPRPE

CCL5_HUMAN [11] = molecular target: T1, CCL5_HUMAN; assay: yeast surface display FACS; remark: listed apart in the source
CCL16_HUMAN = molecular target: T20, CCL16_HUMAN (human, UniProt O15467 24-120); assay: BLI;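 further: biolayer interferometry on an Octet system: chemokines at several doses tested against tick chemokine-binding proteins, association, equilibrium and dissociation curves fitted to derive Kd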
T20 sequence: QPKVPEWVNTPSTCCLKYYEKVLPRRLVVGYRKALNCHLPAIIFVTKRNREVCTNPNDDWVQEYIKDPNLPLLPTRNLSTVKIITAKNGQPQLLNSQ

P1168_IXORI [12] = molecular target: T6, P1168_IXORI; assay: BLI
P1080_IXORI [13] = molecular target: T7, P1080_IXORI; assay: BLI
P1127_IXORI [14] = molecular target: T8, P1127_IXORI; assay: BLI
P1095_IXORI [15] = molecular target: T9, P1095_IXORI; assay: BLI
P1132_IXORI [16] = molecular target: T13, P1132_IXORI; assay: BLI
P1156_IXORI [17] = molecular target: T5, P1156_IXORI; assay: BLI
P1134_IXORI [18] = molecular target: T14, P1134_IXORI; assay: BLI
P1096_IXORI [19] = molecular target: T15, P1096_IXORI; assay: BLI
P1166_IXORI [20] = molecular target: T18, P1166_IXORI; assay: BLI

Sequence of CXCL12_HUMAN (P48061 22-89 limits assumed): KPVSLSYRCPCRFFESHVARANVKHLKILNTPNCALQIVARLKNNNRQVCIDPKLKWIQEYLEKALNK

B1: P1215_AMBPA (other)
chain: KTDTKNAAGELPPKVVIPGCEDPATTKAPLPDEPPYYGITIDKDGCQRKVLGSSQRQQRKVQNGRKLDGKKRGRRPVFVDLELTVDCKRKCNGTYSQLPDGENCLVSDGYPYGRWGTIKGGCYQGNCSSGQCHRGEKKVNCYLPKNITNDVPKSLNLAE
Question: Does B1 bind (CCL5_HUMAN [1])?
Answer: Result: binds

Question: Does B1 bind (CXCL12_HUMAN)?
Answer: Result: binds

Question: Does B1 bind (CCL11_HUMAN)?
Answer: Result: binds

Question: Does B1 bind (CCL18_HUMAN)?
Answer: Result: binds

B2: P1252_AMBAM (other)
chain: RGGAASVPANASIPGCGDAQTTPAAPEDQPKHYVVYRDGNGCEVKIIGTWMTTEDYNCLPDTFRKNRAPHGKVKLPASCKKTCGNAVQNLKDGTPCRKVFGDLGRRRNLIKNGCLVGACQSGLCVSGNRTISCYIPPNSTDTRATPGSFAE
Question: Which results are given for B2?
Answer: binding result (CCL17_HUMAN): binds; binding result (CCL20_HUMAN): binds; binding result (CXCL8_HUMAN): binds

B3: CXCL7_HUMAN (ligand)
chain: AELRCMCIKTTSGIHPKNIQSLEVIGKGTHCNQVEVIATLKDGRKICLDPDAPRIKKIVQKKLAGDESAD
Question: Does B3 bind (P1156_IXORI [2])?
Answer: Result: no binding (tested: 300 nM)

Question: Does B3 bind (P1168_IXORI [3])?
Answer: Result: no binding (tested: 300 nM)

Question: Does B3 bind (P1080_IXORI [4])?
Answer: Result: no binding (tested: 300 nM)

Question: Does B3 bind (P1127_IXORI [5])?
Answer: Result: no binding (tested: 300 nM)

Question: Does B3 bind (P1095_IXORI [6])?
Answer: Result: no binding (tested: 300 nM)

Question: Does B3 bind (P1162_IXORI)?
Answer: Result: no binding (tested: 300 nM)

Question: Does B3 bind (P1170_IXORI)?
Answer: Result: no binding (tested: 300 nM)

Question: Does B3 bind (P1174_IXORI)?
Answer: Result: no binding (tested: 300 nM)

Question: Does B3 bind (P1132_IXORI [7])?
Answer: Result: no binding (tested: 300 nM)

Question: Does B3 bind (P1134_IXORI [8])?
Answer: Result: no binding (tested: 300 nM)

Question: Does B3 bind (P1096_IXORI [9])?
Answer: Result: no binding (tested: 300 nM)

Question: Does B3 bind (P1128_IXORI)?
Answer: Result: no binding (tested: 300 nM)

Question: Does B3 bind (P1229_IXORI)?
Answer: Result: no binding (tested: 300 nM)

Question: Does B3 bind (P1166_IXORI [10])?
Answer: Result: no binding (tested: 300 nM)

Question: Does B3 bind (P1172_IXORI)?
Answer: Result: no binding (tested: 300 nM)

B4: P993_AMBPA (other)
chain: HRHYDPNEPCLIAGLKTPRDALPAGCRYDCMIKKNQKLRDGLLCLDVPEKVVKRMVNYLNYSCPLGTCRKGICKRKHRNVRCQKYPVFYMSPPK
Question: Which results are given for B4?
Answer: binding result (CCL5_HUMAN [11]): binds; binding result (CCL17_HUMAN): binds; binding result (CCL20_HUMAN): binds

B5: P974_AMBCA (other)
chain: ENTQQEEQDYDYGTDTCPFPVLANKTNKAKFVGCHQKCNGGDQKLTDGTACYVVERKVWDRMTPMLWYECPLGECKNGVCEDLRKKEDCRKGNGEEK
Question: How did the Kd (CCL16_HUMAN) turn out when B5 was run?
Answer: The Kd was 11 nM.

B6: P546_AMBCA (other)
chain: ENTQQEEEDYDYGTDTCPFPVLANKTNKAKFVGCHQKCNGGDQKLTDGTACYVVERKVWDRMTPMLWYSCPLGECKNGVCEDLRKKEECRKGNGEEK
Question: With B6 as the binder, how does the Kd (CCL16_HUMAN) read?
Answer: The Kd was 6.7 nM.

B7: P1015_AMBCA (other)
chain: EEAPGPAPGCGEPEPTPPKPRRHGIVTNVNSCNSTILVWNGKEFPALCKVRCPHKSYRVSDFEPCLKFTNRRFLQERKDETPYKCKLGFCRHGTCITSEHSRKVPCKVPADRLDPSE
Question: Does B7 bind (CCL20_HUMAN)?
Answer: Result: binds

Question: Does B7 bind (CXCL8_HUMAN)?
Answer: Result: binds

B8: CXCL14_HUMAN (ligand)
chain: SKCKCSRKGPKIRYSDVKKLEMKPKYPHCEEKMVIITTKSVSRYRGQEHCLHPKLQSTKRFIKWYNAWNEKRRVYEE
Question: What does the source list for B8?
Answer: binding result (P1168_IXORI [12]): no binding (tested: 300 nM); binding result (P1080_IXORI [13]): no binding (tested: 300 nM); binding result (P1127_IXORI [14]): no binding (tested: 300 nM); binding result (P1095_IXORI [15]): no binding (tested: 300 nM); binding result (P1132_IXORI [16]): no binding (tested: 300 nM); binding result (P1156_IXORI [17]): no binding (tested: 300 nM); binding result (P1134_IXORI [18]): no binding (tested: 300 nM); binding result (P1096_IXORI [19]): no binding (tested: 300 nM); binding result (P1166_IXORI [20]): no binding (tested: 300 nM)
